In US20170058319A1, “NANOSENSOR FOR ASSESSING THROMBIN INHIBITORS” (VIRGINIA COMMONWEALTH UNIVERSITY, priority 2014, published 2017):

Legend:
[1] = molecular target: Au-TH nanoprobe (gold nanoparticles covalently linked to bovine α-thrombin) (bovine) (UniProt P00735); test: displacement of HirP from the Au-TH nanoprobe by AT at 100 µM, 1 h incubation
[2] = molecular target: Au-TH nanoprobe (gold nanoparticles covalently linked to bovine α-thrombin) (bovine) (UniProt P00735); test: displacement of HirP from the Au-TH nanoprobe by AT at 10 µM, 1 h incubation
[3] = molecular target: Au-TH nanoprobe (gold nanoparticles covalently linked to bovine α-thrombin) (bovine) (UniProt P00735); test: cell-based or functional assay
[4] = molecular target: Au-TH nanoprobe (gold nanoparticles covalently linked to bovine α-thrombin) (bovine) (UniProt P00735); test: displacement of HirP from the Au-TH nanoprobe by AT at 1 µM, 1 h incubation

Antithrombin (AT), sequence (P01008 33-464): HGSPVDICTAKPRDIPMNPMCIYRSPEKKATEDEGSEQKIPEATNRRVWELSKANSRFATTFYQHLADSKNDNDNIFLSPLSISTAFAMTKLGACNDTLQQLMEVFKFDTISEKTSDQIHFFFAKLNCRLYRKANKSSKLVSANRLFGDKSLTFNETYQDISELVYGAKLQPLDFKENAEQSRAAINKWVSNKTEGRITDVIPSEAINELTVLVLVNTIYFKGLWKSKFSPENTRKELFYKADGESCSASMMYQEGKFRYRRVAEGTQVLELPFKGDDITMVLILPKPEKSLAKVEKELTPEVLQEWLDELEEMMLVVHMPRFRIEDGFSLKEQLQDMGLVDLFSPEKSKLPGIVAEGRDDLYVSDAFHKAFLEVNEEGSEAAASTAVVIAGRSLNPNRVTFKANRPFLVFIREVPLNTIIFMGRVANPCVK

increase in fluorescence at 525 nm [1]: 20% | increase in fluorescence at 525 nm [2]: 25% | neutralization of surface bound thrombin (chromogenic substrate hydrolysis) [3]: < 60% | increase in fluorescence at 525 nm [4]: 40%
Substance: Antithrombin (AT)
